Experimental data taken from the supplement of paper PMC12764529.
± gives the half width of the 95% confidence interval.

Experiments:
[1] = folding stability dG unfold (combined trypsin and chymotrypsin); higher = more stable
Summary of the method: (§1)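 Sequencing followed digestion of designed mini-proteins with trypsin and chymotrypsin, each at 11 concentrations in threefold dilutions together with a no-protease condition. The mini-proteins were under 80 residues, had no cysteine, sat in a PA-tagged cDNA display construct, and were kept only if AlphaFold2 dimer inter-PAE was above 15. From the counts, Bayesian fitting gave K50, and unfolding free energy was derived against a sequence-predicted unfolded-state K50 and a shared folded-state K50, per protease or combined.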

[2] = folding stability dG unfold from chymotrypsin proteolysis; higher = more stable
Summary of the method: as §1

[3] = folding stability dG unfold from trypsin proteolysis; higher = more stable
Summary of the method: as §1

Sequence	folding stability dG unfold [1]	folding stability dG unfold [2]	folding stability dG unfold [3]
SAGGMITTSTLSDGTTVVTIRVPGSPEEADAVAEEVREALLAAGYRTVEVSREPVEDGWVVTITTVSSAGGS [r8_113_JUSTAS]	3.711 ± 0.031 kcal/mol	3.888 ± 0.029 kcal/mol	3.28 ± 0.063 kcal/mol
SAGGMIVLEFPDGKIVFVEPVSEFTTPDGKKVRLVKVIVTDPLTGKSTIIEREVLPGGGVKEKVTPESAGGS [r16_651_JUSTAS]	1.49 ± 0.13 kcal/mol	1.32 ± 0.043 kcal/mol	1.89 ± 0.042 kcal/mol
SAGGMKEIAKALGIKPEDVKIEEEEIEVNGKKVKKIKITVKDKKTKKEYKIELTIVYDKNGKIVKIELSAGG [r13_358_TrROS_Hall]	4.63 ± 0.57 kcal/mol	4.72 ± 0.28 kcal/mol	3.61 ± 0.15 kcal/mol
SAGGMKIEVEVSDSDIESAAERIAKEVYEKIKAEGKNEDVEVTLTLPNGTRYRIVVDGKGNVKEIIESSAGG [r13_965_JUSTAS]	3.74 ± 0.25 kcal/mol	3.79 ± 0.16 kcal/mol	3.07 ± 0.17 kcal/mol
SAGGMKIIEIEYDEETGKYKFKIKIYDKKTGKLYEIEVEVDKKTGKLSIEEIAKKIAEKLGLPKDIKISAGG [r13_362_TrROS_Hall]	3.69 ± 0.3 kcal/mol	4.03 ± 0.062 kcal/mol	2.8 ± 0.17 kcal/mol
SAGGMKIKIEIEPEGDVVKVKIEIELPEGKVEVVEEEEAEVFEDGKIKVRFRVRRKDGPEFEFELDISAGGS [r8_449_TrMRF]	4.17 ± 0.18 kcal/mol	4.41 ± 0.2 kcal/mol	3.49 ± 0.17 kcal/mol
SAGGMKIKIEVIDPDGKKRVIEIDASTPEEIKAALDALPPGAVVRIVVPSPELREALKEAGVDEVVELSAGG [r13_476_TrROS_Hall]	3.87 ± 0.2 kcal/mol	2.77 ± 0.069 kcal/mol	4.37 ± 0.23 kcal/mol
SAGGMKITITLTVKNEELLEELKKLAEELGLKVKIEVKYDEETNELTVTVEIELPPPPEEPSEEELKSAGGS [r16_262_TrROS_Hall]	3.24 ± 0.15 kcal/mol	3.4 ± 0.14 kcal/mol	2.49 ± 0.12 kcal/mol
SAGGMKITTKDGSTITVETEPGKVTITIKPPGDGSTTTLPFPAPSEEEGIEAAIKKIEEEGNVEEIELSAGG [r13_579_JUSTAS]	0.491 ± 0.3 kcal/mol	0.591 ± 0.1 kcal/mol	0.064 ± 0.1 kcal/mol
SAGGMKKVKALVVANPFDPNKYKVFVKAEEEEKVFEFDPNNPEKIIEELEKLLPEDYKLDEIVFESGASAGG [r13_519_TrMRF]	1.74 ± 0.1 kcal/mol	2.12 ± 0.058 kcal/mol	0.752 ± 0.032 kcal/mol
SAGGMKKVRLTLVFESEEEALEALRKALEEAGVEVKVVRVERLPDGRVVVTVEIEVSDEVLEALKAASAGGS [r8_357_TrROS_Hall]	3.91 ± 0.056 kcal/mol	4.01 ± 0.053 kcal/mol	3.77 ± 0.068 kcal/mol
SAGGMKLEILEKSENRIIIRTDEGKIYIAPEIVKKLKEKGGNIKPTLDEIIEWLEKNNIPAEDAVFGDSAGG [r13_610_TrMRF]	0.915 ± 0.11 kcal/mol	1.11 ± 0.064 kcal/mol	0.689 ± 0.028 kcal/mol
SAGGMKLEIYLRFKTEEEAKKAVEELIRKLLEELGLEVEVEVVYDEETKEVYVKVTVTFPELPEEELSAGGS [r8_17_TrROS_Hall]	4.4 ± 0.39 kcal/mol	4.7 ± 0.29 kcal/mol	3.67 ± 0.19 kcal/mol
SAGGMKLPENAKVVKKIEIKDEKTGKTFKATIVKNKDGSLYIFIEKDGKIYKFKIENGKIKMEEIPPSAGGS [r16_711_TrROS_Hall]	4.07 ± 0.55 kcal/mol	4.37 ± 0.25 kcal/mol	3.75 ± 0.75 kcal/mol
SAGGMKPGEIVEKITIEIEINGKKYKIEMTFYKDNGIIEIKIYNKNGKLIKTFKFYIDPKTKKIILLSAGGS [r16_798_TrROS_Hall]	3.68 ± 0.34 kcal/mol	3.81 ± 0.098 kcal/mol	3.66 ± 0.14 kcal/mol
SAGGMKTLTITLTVRNPATQETLTLTITVPEGMSEEELQALLKQLQELVEALLQLPPPPPPPPPELESAGGS [r16_191_TrROS_Hall]	4.01 ± 0.11 kcal/mol	4.25 ± 0.066 kcal/mol	3.16 ± 0.12 kcal/mol

Sequence	folding stability dG unfold [1]	folding stability dG unfold [2]	folding stability dG unfold [3]
SAGGMKTYTVTVEREVPDPSSDKWVYSTETLTIPYNVDPKTGTTPEEVAEELKAALPPDVLRVEFTDESAGG [r13_335_JUSTAS]	0.317 ± 0.13 kcal/mol	0.468 ± 0.21 kcal/mol	-0.166 ± 0.14 kcal/mol
SAGGMKVIELTVDEIKELADKLKENKNLKATIYVNGKKVELEFDTVEDALKALKVKPGDTVLIEIEPSAGGS [r16_377_TrROS_Hall]	3.48 ± 0.068 kcal/mol	3.88 ± 0.07 kcal/mol	2.6 ± 0.051 kcal/mol
SAGGMKVKVEVEITVNGKLVKKLTVEMSVEELKKLIEELLPPGAKVEVKIVEVKVEEVEVYELPEEEKSAGG [r13_491_TrROS_Hall]	2.18 ± 0.32 kcal/mol	2.21 ± 0.18 kcal/mol	1.81 ± 0.13 kcal/mol
SAGGMLDLSDVEVLNTVPIGGGNYLVLLKVPKLGKVVVVPASDLKKLKENVPNVKISFTPVAPSESGSAGGS [r16_61_TrMRF]	1.09 ± 0.059 kcal/mol	1.3 ± 0.072 kcal/mol	0.601 ± 0.025 kcal/mol
SAGGMLEEVAEELAKELNATAREFTTVGDVPRILLTFKVPGSSTYLEVTLTLPPDGSVERTTKPIAASAGGS [r16_433_JUSTAS]	1.3 ± 0.14 kcal/mol	1.7 ± 0.17 kcal/mol	0.974 ± 0.047 kcal/mol
SAGGMLKIEVTVPAEYPEQAEEIAAEIRDLLEAGPYVKVLKVEIEPTEDTVRVTVVVEIEFDSPEELISAGG [r13_39_TrMRF]	1.78 ± 0.21 kcal/mol	2.1 ± 0.06 kcal/mol	1.36 ± 0.17 kcal/mol
SAGGMLLKLPLSSVEIPPDASEEEIEEAKRKLAKPKVVKVTEEVLIEENGIVKKVKVTKYVSLSVEESAGGS [r16_387_JUSTAS]	0.87 ± 0.12 kcal/mol	0.56 ± 0.29 kcal/mol	0.845 ± 0.082 kcal/mol
SAGGMLPGLRPLLLAVLVPAEEPLEPEQVRELAEELRRELEEKGYGFAFRAIELEDFQLIIVDVVDPFSAGG [r13_442_TrMRF]	3.11 ± 0.051 kcal/mol	3.429 ± 0.03 kcal/mol	2.54 ± 0.051 kcal/mol
SAGGMLRVTATVGYAPDDPAVELAKKIAEALTPPGMKVRMKAKVTPLADGTYRIDIEVEIRPPGEPGSAGGS [r16_128_TrMRF]	3.27 ± 0.14 kcal/mol	3.64 ± 0.13 kcal/mol	2.65 ± 0.16 kcal/mol
SAGGMLTGTLVDPVEGIRYTSFYDPSKPSSSITPKPIPPVPPVSLEELAERLRAATGLSREEVLALLESAGG [r13_824_JUSTAS]	0.76 ± 0.072 kcal/mol	0.396 ± 0.13 kcal/mol	1.02 ± 0.022 kcal/mol
SAGGMLTLIDPETGEPFLTTPIATFTVPVTLTGPDGKPLETRTLRITLFRAYRPDGSPALILLVSPESAGGS [r8_214_TrMRF]	4.3 ± 0.052 kcal/mol	4.73 ± 0.061 kcal/mol	3.7 ± 0.083 kcal/mol
SAGGMLTLPATVEGDELTLTLPTGATKTVSPNTTVKLPDGTVVSLTPVSPSSVSATVTPLPADATRPSAGGS [r16_277_JUSTAS]	1.21 ± 0.07 kcal/mol	1.601 ± 0.01 kcal/mol	0.208 ± 0.029 kcal/mol
SAGGMLTLTDPETGVPYTGTPVSTTTTTVVLTTPDGTPVETVTVTVTTYEFTAPDGTPVTLTETTGLSAGGS [r8_214_JUSTAS]	2.08 ± 0.052 kcal/mol	2.27 ± 0.025 kcal/mol	1.75 ± 0.071 kcal/mol
SAGGMLTYTTEYDPRGVLTVREYDPSTSKPISTHIIELGPEPVPPPVPGFPQVTPSGELRLVEDPAGPSAGG [r13_9_JUSTAS]	-0.0536 ± 0.15 kcal/mol	-0.0943 ± 0.33 kcal/mol	-0.178 ± 0.12 kcal/mol
SAGGMLVEARPVLRLTLVSPDGTPREFELPFTVPFSPENPEALLEEAEAIARAIAEATGAEAEIEIEPSAGG [r13_853_TrMRF]	0.319 ± 0.15 kcal/mol	0.017 ± 0.23 kcal/mol	0.506 ± 0.064 kcal/mol
